# B1: CAP256-VRC26.01 (antibody, V domains shown)
# VH: EVQVVESGGGVVQPGRSLRLSCTASGFTFSNFAMGWVRQAPGKGLEWVAFISSDGSNKNYGDSVKGRFTISRDNSKNTVFLQMNSLRVEDTALYYCAKDVGDYKSDEWGTEYYDISISYPIQDPRAMVGAFDLWGQGTMVTVSP
# VL: QSVLTQPPSVSAAPGQKVTISCSGSSSTIGNNYVSWYRLLPGTAPKLLIYKNDNRPSGIPDRFSGSKSGTSATLGISGLQTGDEADYYCGTWDTSLSGGGVFGTGTKVTVLG
# Columns and labels:
# Assay in all cases: cell-based or functional assay
# HIV-1 Env of CAP256.PI = HIV-1 Env of CAP256.PI (HIV-1)
# HIV-1 Env of ZM233.6 = HIV-1 Env of ZM233.6 (HIV-1)
# Env of SIVmac251.30 = Env of SIVmac251.30 (SIV (printed as nonHIV))
# HIV-1 Env of 0260.v5.c36 = HIV-1 Env of 0260.v5.c36 (HIV-1)
# HIV-1 Env of DU422.01 = HIV-1 Env of DU422.01 (HIV-1)
# HIV-1 Env of CNE3 = HIV-1 Env of CNE3 (HIV-1)
# HIV-1 Env of Q259.d2.17 = HIV-1 Env of Q259.d2.17 (HIV-1)
# HIV-1 Env of Q23.17 = HIV-1 Env of Q23.17 (HIV-1)
# HIV-1 Env of CAAN.A2 = HIV-1 Env of CAAN.A2 (HIV-1)
# HIV-1 Env of DU156.12 = HIV-1 Env of DU156.12 (HIV-1)
# HIV-1 Env of QH0692.42 = HIV-1 Env of QH0692.42 (HIV-1)
# HIV-1 Env of ZM109.4 = HIV-1 Env of ZM109.4 (HIV-1)
# HIV-1 Env of 96ZM651.02 = HIV-1 Env of 96ZM651.02 (HIV-1)
# HIV-1 Env of CAP45.G3 = HIV-1 Env of CAP45.G3 (HIV-1)
# HIV-1 Env of TRJO.58 = HIV-1 Env of TRJO.58 (HIV-1)
# HIV-1 Env of TRO.11 = HIV-1 Env of TRO.11 (HIV-1)
# HIV-1 Env of CAP210.E8 = HIV-1 Env of CAP210.E8 (HIV-1)
# HIV-1 Env of THRO.18 = HIV-1 Env of THRO.18 (HIV-1)
# HIV-1 Env of RHPA.7 = HIV-1 Env of RHPA.7 (HIV-1)
# HIV-1 Env of PVO.04 = HIV-1 Env of PVO.04 (HIV-1)
# HIV-1 Env of TH976.17 = HIV-1 Env of TH976.17 (HIV-1)
# HIV-1 Env of CM244.ec1 = HIV-1 Env of CM244.ec1 (HIV-1)
# HIV-1 Env of AC10.29 = HIV-1 Env of AC10.29 (HIV-1)
# HIV-1 Env of Q769.d22 = HIV-1 Env of Q769.d22 (HIV-1)
# HIV-1 Env of KER2018.11 = HIV-1 Env of KER2018.11 (HIV-1)
# HIV-1 Env of ZM197.7 = HIV-1 Env of ZM197.7 (HIV-1)
# HIV-1 Env of KER2008.12 = HIV-1 Env of KER2008.12 (HIV-1)
# HIV-1 Env of 6405.v4.c34 = HIV-1 Env of 6405.v4.c34 (HIV-1)
# HIV-1 Env of RW020.2 = HIV-1 Env of RW020.2 (HIV-1)
# HIV-1 Env of ZM135.10a = HIV-1 Env of ZM135.10a (HIV-1)
# HIV-1 Env of BG505.w6m = HIV-1 Env of BG505.w6m (HIV-1)
# HIV-1 Env of UG037.8 = HIV-1 Env of UG037.8 (HIV-1)
# HIV-1 Env of SC422.8 = HIV-1 Env of SC422.8 (HIV-1)
# HIV-1 Env of Q168.a2 = HIV-1 Env of Q168.a2 (HIV-1)
# HIV-1 Env of WITO.33 = HIV-1 Env of WITO.33 (HIV-1)
# HIV-1 Env of CAP244.D3 = HIV-1 Env of CAP244.D3 (HIV-1)
# HIV-1 Env of 191821.E6.1 = HIV-1 Env of 191821.E6.1 (HIV-1)
# HIV-1 Env of CAP256.SU = HIV-1 Env of CAP256.SU (HIV-1)
# HIV-1 Env of 3016.V5.c36 = HIV-1 Env of 3016.V5.c36 (HIV-1)
# HIV-1 Env of Q842.d12 = HIV-1 Env of Q842.d12 (HIV-1)
# HIV-1 Env of DU172.17 = HIV-1 Env of DU172.17 (HIV-1)
# HIV-1 Env of ZM53.12 = HIV-1 Env of ZM53.12 (HIV-1)
# HIV-1 Env of ZM214.15 = HIV-1 Env of ZM214.15 (HIV-1)
# HIV-1 Env of Q461.e2 = HIV-1 Env of Q461.e2 (HIV-1)
# HIV-1 Env of ZM249.1 = HIV-1 Env of ZM249.1 (HIV-1)
# HIV-1 Env of MB539.2B7 = HIV-1 Env of MB539.2B7 (HIV-1)
# HIV-1 Env of REJO.67 = HIV-1 Env of REJO.67 (HIV-1)
# HIV-1 Env of MB201 = HIV-1 Env of MB201 (HIV-1)
# HIV-1 Env of 6535.3 = HIV-1 Env of 6535.3 (HIV-1)
# HIV-1 Env of C1080.c3 = HIV-1 Env of C1080.c3 (HIV-1)
binder,measurement,setting,value
B1,neutralization IC50,HIV-1 Env of CAP256.PI,> 50 µg/mL
same,neutralization IC50,HIV-1 Env of ZM233.6,> 50 µg/mL
same,neutralization IC50,Env of SIVmac251.30,> 50 µg/mL
same,neutralization IC50,HIV-1 Env of 0260.v5.c36,> 50 µg/mL
same,neutralization IC50,HIV-1 Env of DU422.01,> 50 µg/mL
same,neutralization IC50,HIV-1 Env of CNE3,> 50 µg/mL
same,neutralization IC50,HIV-1 Env of Q259.d2.17,> 50 µg/mL
same,neutralization IC50,HIV-1 Env of Q23.17,> 50 µg/mL
same,neutralization IC50,HIV-1 Env of CAAN.A2,> 50 µg/mL
same,neutralization IC50,HIV-1 Env of DU156.12,> 50 µg/mL
same,neutralization IC50,HIV-1 Env of QH0692.42,> 50 µg/mL
same,neutralization IC50,HIV-1 Env of ZM109.4,> 50 µg/mL
same,neutralization IC50,HIV-1 Env of 96ZM651.02,> 50 µg/mL
same,neutralization IC50,HIV-1 Env of CAP45.G3,> 50 µg/mL
same,neutralization IC50,HIV-1 Env of TRJO.58,> 50 µg/mL
same,neutralization IC50,HIV-1 Env of TRO.11,> 50 µg/mL
same,neutralization IC50,HIV-1 Env of CAP210.E8,0.217 µg/mL
same,neutralization IC50,HIV-1 Env of THRO.18,> 50 µg/mL
same,neutralization IC50,HIV-1 Env of RHPA.7,> 50 µg/mL
same,neutralization IC50,HIV-1 Env of PVO.04,> 50 µg/mL
same,neutralization IC50,HIV-1 Env of TH976.17,> 50 µg/mL
same,neutralization IC50,HIV-1 Env of CM244.ec1,3.32 µg/mL
same,neutralization IC50,HIV-1 Env of AC10.29,> 50 µg/mL
same,neutralization IC50,HIV-1 Env of Q769.d22,> 50 µg/mL
same,neutralization IC50,HIV-1 Env of KER2018.11,8.1 µg/mL
same,neutralization IC50,HIV-1 Env of ZM197.7,10.4 µg/mL
same,neutralization IC50,HIV-1 Env of KER2008.12,30.9 µg/mL
same,neutralization IC50,HIV-1 Env of 6405.v4.c34,> 50 µg/mL
same,neutralization IC50,HIV-1 Env of RW020.2,> 50 µg/mL
same,neutralization IC50,HIV-1 Env of ZM135.10a,> 50 µg/mL
same,neutralization IC50,HIV-1 Env of BG505.w6m,> 50 µg/mL
same,neutralization IC50,HIV-1 Env of UG037.8,> 50 µg/mL
same,neutralization IC50,HIV-1 Env of SC422.8,> 50 µg/mL
same,neutralization IC50,HIV-1 Env of Q168.a2,> 50 µg/mL
same,neutralization IC50,HIV-1 Env of WITO.33,> 50 µg/mL
same,neutralization IC50,HIV-1 Env of CAP244.D3,> 50 µg/mL
same,neutralization IC50,HIV-1 Env of 191821.E6.1,> 50 µg/mL
same,neutralization IC50,HIV-1 Env of CAP256.SU,0.14 µg/mL
same,neutralization IC50,HIV-1 Env of 3016.V5.c36,9.63 µg/mL
same,neutralization IC50,HIV-1 Env of Q842.d12,> 50 µg/mL
same,neutralization IC50,HIV-1 Env of DU172.17,> 50 µg/mL
same,neutralization IC50,HIV-1 Env of ZM53.12,0.103 µg/mL
same,neutralization IC50,HIV-1 Env of ZM214.15,> 50 µg/mL
same,neutralization IC50,HIV-1 Env of Q461.e2,> 50 µg/mL
same,neutralization IC50,HIV-1 Env of ZM249.1,> 50 µg/mL
same,neutralization IC50,HIV-1 Env of MB539.2B7,> 50 µg/mL
same,neutralization IC50,HIV-1 Env of REJO.67,> 50 µg/mL
same,neutralization IC50,HIV-1 Env of MB201,> 50 µg/mL
same,neutralization IC50,HIV-1 Env of 6535.3,> 50 µg/mL
same,neutralization IC50,HIV-1 Env of C1080.c3,> 50 µg/mL
